Results: patent US20240254222A1 (Bayer, published 2024)
Blank lines part the entries; values can stand above or below the binder they belong to.

Tests used:
Assay in all cases: SPR, captured antibody, Sema3A domain analyte
[1] = biological target: T1, Dog Semaphorin3A-Sema Domain, TPP-19121 (dog, UniProt Q63548 21-569 (rat entry), limits assumed)
T1 construct: produced inhouse
T1 chain: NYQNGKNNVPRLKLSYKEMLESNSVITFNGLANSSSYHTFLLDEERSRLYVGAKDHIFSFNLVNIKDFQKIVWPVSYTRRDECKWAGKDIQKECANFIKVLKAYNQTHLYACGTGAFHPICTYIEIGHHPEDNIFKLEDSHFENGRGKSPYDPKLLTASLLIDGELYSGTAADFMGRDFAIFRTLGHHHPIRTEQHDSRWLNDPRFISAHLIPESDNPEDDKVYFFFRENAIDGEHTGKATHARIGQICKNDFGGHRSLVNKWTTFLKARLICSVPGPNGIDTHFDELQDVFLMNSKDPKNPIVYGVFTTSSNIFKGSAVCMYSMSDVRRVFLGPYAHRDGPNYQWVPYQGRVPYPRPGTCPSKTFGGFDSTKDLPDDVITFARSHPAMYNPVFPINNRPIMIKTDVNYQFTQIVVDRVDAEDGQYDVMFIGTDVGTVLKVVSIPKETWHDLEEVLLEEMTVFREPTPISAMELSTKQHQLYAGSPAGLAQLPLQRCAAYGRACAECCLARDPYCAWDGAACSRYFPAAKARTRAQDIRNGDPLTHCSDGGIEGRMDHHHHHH
Summary of the method: (§1)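 Kinetics fitted to a 1:1 Langmuir model after double referencing; glycine pH 2.0 regeneration. Sema3A domain analytes (several species) ran at […]-3.125 nM multi-cycle or single 100 nM; Fc-tagged Sema3A at 1.56-200 nM over Fab-captured antibody, otherwise Fc capture. Buffer HBS P+ plus 300 mM NaCl, CaCl₂, MgCl₂, BSA, 25° C.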

[2] = biological target: T2, Mouse Semaphorin3A-Sema Domain, TPP-19069 (mouse, UniProt O08665 21-569)
T2 construct: produced inhouse
T2 sequence: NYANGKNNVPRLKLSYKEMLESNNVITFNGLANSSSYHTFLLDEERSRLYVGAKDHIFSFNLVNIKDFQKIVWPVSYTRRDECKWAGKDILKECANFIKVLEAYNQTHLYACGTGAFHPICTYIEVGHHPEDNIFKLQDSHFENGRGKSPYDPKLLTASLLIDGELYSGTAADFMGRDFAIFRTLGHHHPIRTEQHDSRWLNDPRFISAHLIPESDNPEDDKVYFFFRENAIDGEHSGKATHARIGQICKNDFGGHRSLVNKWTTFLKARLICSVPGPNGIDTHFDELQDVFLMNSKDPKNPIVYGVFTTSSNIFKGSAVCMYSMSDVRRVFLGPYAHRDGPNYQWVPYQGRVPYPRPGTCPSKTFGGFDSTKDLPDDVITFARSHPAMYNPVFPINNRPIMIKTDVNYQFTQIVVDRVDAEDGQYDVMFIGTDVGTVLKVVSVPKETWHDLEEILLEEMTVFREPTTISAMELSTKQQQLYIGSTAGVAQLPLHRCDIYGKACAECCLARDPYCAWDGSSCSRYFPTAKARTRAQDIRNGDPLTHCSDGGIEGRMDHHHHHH
Summary of the method: as §1

[3] = biological target: T3, Human Semaphorin3A-Sema Domain, TPP-19068 (human, UniProt Q14563 21-569)
T3 construct: produced inhouse in HEK293-6E; also called human monovalent Sema3A domain
T3 sequence: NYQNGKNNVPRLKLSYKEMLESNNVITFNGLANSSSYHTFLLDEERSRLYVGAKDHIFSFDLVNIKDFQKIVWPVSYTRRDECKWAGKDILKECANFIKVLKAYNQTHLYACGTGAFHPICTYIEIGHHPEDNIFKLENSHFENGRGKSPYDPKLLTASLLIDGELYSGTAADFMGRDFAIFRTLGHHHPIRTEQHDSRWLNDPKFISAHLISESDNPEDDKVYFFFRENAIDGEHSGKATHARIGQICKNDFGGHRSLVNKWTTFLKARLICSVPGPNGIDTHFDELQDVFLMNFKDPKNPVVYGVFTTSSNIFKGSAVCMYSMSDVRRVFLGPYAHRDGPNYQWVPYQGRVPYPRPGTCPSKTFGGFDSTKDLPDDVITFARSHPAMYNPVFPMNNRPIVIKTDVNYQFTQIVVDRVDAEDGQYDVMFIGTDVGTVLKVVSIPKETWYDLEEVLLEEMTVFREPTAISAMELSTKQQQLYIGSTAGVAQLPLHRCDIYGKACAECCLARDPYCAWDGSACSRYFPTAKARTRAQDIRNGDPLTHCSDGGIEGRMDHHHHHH
Summary of the method: as §1

B1: TPP-17755 (antibody, human IgG1, lambda, V domains shown)
VH: EVQLLESGGGLVQTGGSLRLSCAASGFTFSDYAMSWVRQAPGKGLEWVSWIYYDSGSKYYADSVKGRFTISRDNSKNTLYLQMNSLRAEDTAVYYCAKLNGDFDYWGQGTLVTVSS
VL: QSVLTQPPSASGTPGQRVTISCSGSSSNIGNNDVSWYQQLPGTAPKLLIYADSHRPSGVPDRFSGSKSGTSASLAISGLRSEDEADYYCGAWDSSLSGYVFGGGTKLTVLG
notes: also called Samsung; Samsung Prior Art F11
Kd [1]: 7.5 nM
Kd [2]: 3.9 nM
Kd [3]: 6.9 nM

B2: TPP-23337 (antibody, human IgG4 S228P, lambda, V domains shown)
VH: EVQLLESGGGLVQPGGSLRLSCAASGFTFSSYAMSWVRQAPGKGLEWVSAIGYGGDTYYADSVKGRFTISRDNSKNTLYLQMNSLRAEDTAVYYCARRDDYTSRDAFDYWGQGTLVTVSS
VL: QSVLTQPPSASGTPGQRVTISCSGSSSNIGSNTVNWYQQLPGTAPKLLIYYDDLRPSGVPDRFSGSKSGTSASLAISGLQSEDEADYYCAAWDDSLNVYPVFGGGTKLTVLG
Kd [1]: 0.0045 nM
Kd [2]: 0.05 nM
Kd [3]: 0.05 nM

B3: TPP-15370 (antibody, human IgG1, lambda, V domains shown)
VH: EVQLLESGGGLVQPGGSLRLSCAASGFTFSSYGMHWVRQAPGKGLEWVSAIGTGGDTYYADSVMGRFTISRDNSKNTLYLQMNSLRAEDTAVYYCARRDDYTSRDAFDVWGQGTLVTVSS
VL: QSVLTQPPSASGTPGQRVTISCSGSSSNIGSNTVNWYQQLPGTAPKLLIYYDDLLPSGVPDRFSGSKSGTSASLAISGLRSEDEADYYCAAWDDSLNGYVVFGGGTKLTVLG
notes: human IgG1; also called IgG1, hit from panning; parental mAb
Kd [1]: 22 nM
Kd [2]: 7.2 nM
Kd [3]: 10 nM

B4: TPP-23341 (antibody, human IgG4 S228P, lambda, V domains shown)
VH: EVQLLESGGGLVQPGGSLRLSCAASGFTFSSYAMSWVRQAPGKGLEWVSAIGYGGDTYYADSVKGRFTISRDNSKNTLYLQMNSLRAEDTAVYYCARRDDYTSRDAFDYWGQGTLVTVSS
VL: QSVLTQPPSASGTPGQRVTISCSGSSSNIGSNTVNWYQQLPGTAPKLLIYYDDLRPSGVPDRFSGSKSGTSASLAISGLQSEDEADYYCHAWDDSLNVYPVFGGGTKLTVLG
Kd [1]: 0.084 nM
Kd [2]: 0.092 nM
Kd [3]: 0.091 nM

B8: TPP-23340 (antibody, human IgG4 S228P, lambda, V domains shown)
VH: EVQLLESGGGLVQPGGSLRLSCAASGFTFSSYAMSWVRQAPGKGLEWVSAIGYGGDTYYADSVKGRFTISRDNSKNTLYLQMNSLRAEDTAVYYCARRDDYTSRDAFDYWGQGTLVTVSS
VL: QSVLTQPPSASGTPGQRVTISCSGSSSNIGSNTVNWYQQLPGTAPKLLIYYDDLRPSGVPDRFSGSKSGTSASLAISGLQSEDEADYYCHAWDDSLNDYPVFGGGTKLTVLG
Kd [1]: 0.058 nM
Kd [2]: 0.059 nM
Kd [3]: 0.022 nM

B11: TPP-23373 (antibody, human IgG4 S228P, lambda, V domains shown)
VH: EVQLLESGGGLVQPGGSLRLSCAASGFTFYSYAMSWVRQAPGKGLEWVSAIGYGGDTYYADSVKGRFTISRDNSKNTLYLQMNSLRAEDTAVYYCARRDDYTSRDAFDYWGQGTLVTVSS
VL: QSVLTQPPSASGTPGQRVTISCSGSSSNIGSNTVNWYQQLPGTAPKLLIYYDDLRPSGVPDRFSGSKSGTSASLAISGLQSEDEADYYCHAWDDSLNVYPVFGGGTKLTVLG
Kd [1]: 0.1 nM
Kd [2]: 0.083 nM
Kd [3]: 0.11 nM

B13: TPP-23298 (antibody, human IgG4 S228P, lambda, V domains shown)
VH: EVQLLESGGGLVQPGGSLRLSCAASGFTFYSYAMSWVRQAPGKGLEWVSAIGTGGDTYYADSVKGRFTISRDNSKNTLYLQMNSLRAEDTAVYYCARRDDYTSRDAFDYWGQGTLVTVSS
VL: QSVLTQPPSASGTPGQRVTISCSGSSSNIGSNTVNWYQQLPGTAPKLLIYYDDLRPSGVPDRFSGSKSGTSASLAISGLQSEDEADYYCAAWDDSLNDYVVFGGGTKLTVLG
Kd [1]: 0.07 nM
Kd [2]: 0.074 nM
Kd [3]: 0.087 nM

B14: TPP-23346 (antibody, human IgG4 S228P, lambda, V domains shown)
VH: EVQLLESGGGLVQPGGSLRLSCAASGFTFYSYAMLWVRQAPGKGLEWVSAIGTGGDTYYADSVKGRFTISRDNSKNTLYLQMNSLRAEDTAVYYCARRDDYTSRDAFDYWGQGTLVTVSS
VL: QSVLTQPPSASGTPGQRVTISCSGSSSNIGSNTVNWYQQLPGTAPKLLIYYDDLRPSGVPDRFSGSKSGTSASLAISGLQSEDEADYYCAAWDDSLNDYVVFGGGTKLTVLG
Kd [1]: 0.061 nM
Kd [2]: 0.064 nM
Kd [3]: 0.072 nM

B15: TPP-30788 (antibody, human IgG1, kappa, V domains shown)
VH: EVQLVESGGGLVQPGGSLRLSCAASGFTFSSYYMSWVRQAPGKGLEWVSTIIKSGGYAYYPDSVKDRFTISRDNSKNTLYLQMSSLRAEDTAVYYCVRGGQGAMDYWGQGTTVTVSS
VL: EIVLTQSPATLSLSPGERATLSCRASQSIGDYLHWYQQKPGQAPRLLIKYASQSISGIPARFSGSGSGTDFTLTITSLEPEDFAVYYCQQGYSFPYTFGGGTKLEIKR
notes: prior art, WO 2020/225400; also called BI clone I; Böhringer (BI) Clone I
Kd [1]: 0.11 nM
Kd [2]: 0.043 nM
Kd [3]: 0.018 nM

B16: TPP-30790 (antibody, human IgG1, kappa, V domains shown)
VH: EVQLVESGGGLVQLGGSLRLSCAASGFTFSSYYMSWVRQAPGKGLEWVSTIIKSGGYAYYPDSVKDRFTISRDNSKNTLYLQMNSLRAEDTAVYYCVKGGQGAMDYWGQGTTVTVSS
VL: EIVLTQSPATLSLSPGERATLSCRASQSIGDYLHWYQQKPGQAPRLLIYYASQSISGIPARFSGSGSGTDFTLTISSLEPEDFAVYYCQQGYSFPYTFGGGTKLEIKR
notes: prior art, WO 2020/225400; also called BI clone III; Böhringer (BI) Clone III
Kd [1]: 0.1 nM
Kd [2]: 0.04 nM
Kd [3]: 0.015 nM

B17: TPP-30789 (antibody, human IgG1, kappa, V domains shown)
VH: EVQLVESGGGLVQPGGSLRLSCAASGFPFSSYYMSWVRQAPGKGLEWVSTIIKSGGYAYYPDSVKDRFTISRDNSKNTLYLQMSSLRAEDTAVYYCVRGGQGAMDYWGQGTTVTVSS
VL: EIVLTQSPATLSLSPGERATLSCRASQSIGDYLHWYQQKPGQAPRLLIKYASQSISGIPARFSGSGSGTDFTLTITSLEPEDFAVYYCQQGYSFPYTFGGGTKLEIKR
notes: prior art, WO 2020/225400; also called BI clone II; Böhringer (BI) Clone II
Kd [1]: 0.11 nM
Kd [2]: 0.042 nM
Kd [3]: 0.022 nM

B18: TPP-30791 (antibody, human IgG1, kappa, V domains shown)
VH: EVQLVESGGGLLQLGGSLRLSCAASGFTFSSYYMSWVRQAPGKGLEWVSTIIKSGGYAYYPDSVKDRFTISRDNSKNTLNLQMNSLRAEDTAVYYCVKGGQGAMDYWGQGTTVTVSS
VL: EIVLTQSPATLSLSPGERATLSCRASQSIGDYLHWYQQKPGQAPRLLIKYASQSISGIPARFSGSGSGTDFTLTISSLEPEDFAVYYCQQGYSFPYTFGGGTKLEIKR
notes: prior art, WO 2020/225400; also called BI clone IV; Böhringer (BI) Clone IV
Kd [1]: 0.078 nM
Kd [2]: 0.028 nM
Kd [3]: 0.012 nM

The remaining lines, values ahead:

Kd [1]: 0.0084 nM
Kd [2]: 0.062 nM
Kd [3]: 0.021 nM
B5: TPP-23334 (antibody, human IgG4 S228P, lambda, V domains shown)
VH: EVQLLESGGGLVQPGGSLRLSCAASGFTFSSYAMSWVRQAPGKGLEWVSAIGYGGDTYYADSVKGRFTISRDNSKNTLYLQMNSLRAEDTAVYYCARRDDYTSRDAFDYWGQGTLVTVSS
VL: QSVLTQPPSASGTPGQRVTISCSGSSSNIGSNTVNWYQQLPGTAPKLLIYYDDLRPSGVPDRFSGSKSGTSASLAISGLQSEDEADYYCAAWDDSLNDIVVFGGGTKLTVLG

Kd [1]: 0.0073 nM
Kd [2]: 0.016 nM
Kd [3]: 0.0081 nM
B6: TPP-23374 (antibody, human IgG4 S228P, lambda, V domains shown)
VH: EVQLLESGGGLVQPGGSLRLSCAASGFTFYSYAMSWVRQAPGKGLEWVSAIGYGGDTYYADSVKGRFTISRDNSKNTLYLQMNSLRAEDTAVYYCARRDDYTSRDAFDYWGQGTLVTVSS
VL: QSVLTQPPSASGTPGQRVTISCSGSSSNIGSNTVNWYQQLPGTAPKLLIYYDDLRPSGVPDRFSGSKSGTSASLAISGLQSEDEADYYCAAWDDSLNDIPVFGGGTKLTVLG

Kd [1]: 0.051 nM
Kd [2]: 0.055 nM
Kd [3]: 0.06 nM
B7: TPP-23347 (antibody, human IgG4 S228P, lambda, V domains shown)
VH: EVQLLESGGGLVQPGGSLRLSCAASGFTFYSYAMLWVRQAPGKGLEWVSAIGTGGDTYYADSVKGRFTISRDNSKNTLYLQMNSLRAEDTAVYYCARRDDYTSRDAFDYWGQGTLVTVSS
VL: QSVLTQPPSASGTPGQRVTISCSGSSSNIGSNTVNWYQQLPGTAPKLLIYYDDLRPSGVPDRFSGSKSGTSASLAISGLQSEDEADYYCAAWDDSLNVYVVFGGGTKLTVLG

Kd [1]: 0.053 nM
Kd [2]: 0.045 nM
Kd [3]: 0.054 nM
B9: TPP-23338 (antibody, human IgG4 S228P, lambda, V domains shown)
VH: EVQLLESGGGLVQPGGSLRLSCAASGFTFSSYAMSWVRQAPGKGLEWVSAIGYGGDTYYADSVKGRFTISRDNSKNTLYLQMNSLRAEDTAVYYCARRDDYTSRDAFDYWGQGTLVTVSS
VL: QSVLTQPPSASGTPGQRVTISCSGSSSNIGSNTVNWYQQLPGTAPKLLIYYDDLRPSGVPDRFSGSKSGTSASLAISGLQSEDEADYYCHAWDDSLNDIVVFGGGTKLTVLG

Kd [1]: 0.046 nM
Kd [2]: 0.063 nM
Kd [3]: 0.065 nM
B10: TPP-23345 (antibody, human IgG4 S228P, lambda, V domains shown)
VH: EVQLLESGGGLVQPGGSLRLSCAASGFTFSSYAMSWVRQAPGKGLEWVSAIGYGGDTYYADSVKGRFTISRDNSKNTLYLQMNSLRAEDTAVYYCARRDDYTSRDAFDYWGQGTLVTVSS
VL: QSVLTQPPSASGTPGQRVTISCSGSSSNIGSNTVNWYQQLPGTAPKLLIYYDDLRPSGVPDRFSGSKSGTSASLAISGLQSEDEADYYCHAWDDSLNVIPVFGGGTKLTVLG

Kd [1]: 0.045 nM
Kd [2]: 0.042 nM
Kd [3]: 0.053 nM
B12: TPP-23375 (antibody, human IgG4 S228P, lambda, V domains shown)
VH: EVQLLESGGGLVQPGGSLRLSCAASGFTFYSYAMSWVRQAPGKGLEWVSAIGYGGDTYYADSVKGRFTISRDNSKNTLYLQMNSLRAEDTAVYYCARRDDYTSRDAFDYWGQGTLVTVSS
VL: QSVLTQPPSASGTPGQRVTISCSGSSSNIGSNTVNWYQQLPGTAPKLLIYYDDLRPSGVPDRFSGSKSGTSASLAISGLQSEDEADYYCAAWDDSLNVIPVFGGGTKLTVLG
